Experiment [1] has as its target full-length NrS-1 polymerase K525A mutant (phage NrS-1). The experiment is described as follows: SEC; Superose 6 Increase 10/300 GL; 20 mM Tris pH 8.0, 2 mM DTT with 500 mM NaCl (high salt) or 200 mM NaCl (low salt); monomer at 15.83 ml, hexamer at 13.5 ml. In general terms: In gel filtration, larger molecules generally elute earlier.
The target of experiment [2] is NrS-1 polymerase C-terminal region (residues 301-718) (phage NrS-1). Put plainly: crystal structure; B-form NrS-1 CTR crystals, space group P213, grown at 16°C in 1.6 M NaH2PO4/0.4 M K2HPO4, 0.1 M phosphate-citrate pH 4.2; two monomers per asymmetric unit, hexamer by symmetry operation; 2.4 Å.
The target is the same in experiment [3]. Put plainly: crystal structure; A-form NrS-1 CTR crystals, space group P212121, grown at 16°C in 2.8 M sodium acetate trihydrate pH 7.0; six monomers per asymmetric unit.
Experiment [4] has as its target full-length NrS-1 polymerase (wild type) (phage NrS-1). Put plainly: negative-stain electron microscopy; protein from the first peak of the size-exclusion column, diluted to 40 μg/ml in low-salt buffer, stained with 0.75% uranyl formate; 2D class averages and 3D map (RELION).
For experiment [5] the target is unchanged. Put plainly: SEC; Superose 6 Increase 10/300 GL; 20 mM Tris pH 8.0, 2 mM DTT with 500 mM NaCl (high salt) or 200 mM NaCl (low salt); monomer at 15.83 ml, hexamer at 13.5 ml.

By stoichiometry N is commonly meant the number of molecules, sites or subunits per partner or assembly.

On to “full-length NrS-1 polymerase K525A mutant (enzyme)”, for which the stoichiometry N in experiment [1] was 6.
On to “NrS-1 polymerase C-terminal region (residues 301-718) (domain or fragment)”, for which the stoichiometry N in experiment [2] and in experiment [3] was 6 in each case.
As for “full-length NrS-1 polymerase (wild type) (enzyme)”, the stoichiometry N in experiment [4] and in experiment [5] was 6 throughout.
